The target of experiment [1] is Uso1-HA3, full length, native protein of Aspergillus (Aspergillus nidulans). Nature of the experiment: SEC. Background: Size exclusion chromatography separates by hydrodynamic size, large species first.
In experiment [2] the target is Uso1 CCD-His6x (pET21b-Uso1 CCD-His6x), coiled-coil domain (CC + CTR) (Aspergillus nidulans). Briefly: AUC + other: dynamic light scattering.
For experiment [3], the target named is Uso1ΔCTR-His6x (pET21b-Uso1ΔCTR-His6x) (Aspergillus nidulans). Nature of the experiment: AUC + other: dynamic light scattering.
Experiment [4] addresses Bos1-GST (pET21b-Bos1-GST), cytoplasmic domain of Bos1 (Aspergillus nidulans). Briefly: pull-down.
The target of experiment [5] is Uso1(E6K/G540S)-His6x, full length (pET21b-Uso1(E6K/G540S)-His6x) (Aspergillus nidulans). Nature of the experiment: AUC + other: dynamic light scattering.
For experiment [6], the target named is Uso1(E6K/G540S)ΔCTR-His6x (pET21b-Uso1(E6K/G540S)ΔCTR-His6x) (Aspergillus nidulans). Briefly: AUC + other: dynamic light scattering.
The target of experiment [7] is Bet1-GST (pET21b-Bet1-GST), cytoplasmic domain of Bet1 (Aspergillus nidulans). Nature of the experiment: pull-down.
In experiment [8] the target is Uso1-His6x, full length (pET21b-Uso1-His6x) (Aspergillus nidulans). Nature of the experiment: SEC.
For experiment [9] the target is unchanged. Briefly: AUC + other: dynamic light scattering.

Usually stoichiometry N stands for a count of units in the complex or per binding partner. With “Uso1-HA3, full length, native protein of Aspergillus (natural protein)”, in experiment [1], the stoichiometry N is 2.

As for “Uso1 CCD-His6x (pET21b-Uso1 CCD-His6x), coiled-coil domain (CC + CTR) (domain or fragment)”, the stoichiometry N in experiment [2] came to 2.

For “Uso1ΔCTR-His6x (pET21b-Uso1ΔCTR-His6x) (domain or fragment)”, the stoichiometry N in experiment [3] is 2.

In experiment [4], “Uso1(E6K/G540S)-His6x, full length (pET21b-Uso1(E6K/G540S)-His6x) (natural protein)” yielded a fold increase of the protein retained, against wild-type Uso1 of 5 fold. The stoichiometry N in experiment [5] amounted to 2.

“Uso1(E6K/G540S)ΔCTR-His6x (pET21b-Uso1(E6K/G540S)ΔCTR-His6x) (domain or fragment)”: in experiment [6], the stoichiometry N turned out to be 2.

In turn, “Uso1-His6x, full length (pET21b-Uso1-His6x) (natural protein)” had a percent of the prey pulled down in experiment [7] of 70%. For the same substance, the stoichiometry N in experiment [8] and in experiment [9] was 2 in each case.

(Values after paper doi:10.1101/2022.11.30.518472.)
